This passage reports binding result and IC50 results from patent US20230042913A1 (COUNCIL OF THE QUEENSLAND INSTITUTE OF MEDICAL RESEARCH, published 2023).

For experiment [1], the target named is T1, mouse PD-1 transiently expressed by HEK-293 cells (mouse, UniProt Q02242 25-288).
T1 construct: whole, on cells; also called muPD-1
T1 sequence (looked up): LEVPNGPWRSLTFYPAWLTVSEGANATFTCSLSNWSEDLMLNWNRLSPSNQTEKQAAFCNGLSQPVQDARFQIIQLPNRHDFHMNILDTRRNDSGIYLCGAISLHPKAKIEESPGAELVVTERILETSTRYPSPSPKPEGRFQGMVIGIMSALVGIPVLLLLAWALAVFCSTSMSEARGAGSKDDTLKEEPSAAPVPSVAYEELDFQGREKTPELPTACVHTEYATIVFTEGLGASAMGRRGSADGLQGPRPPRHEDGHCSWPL
As to the kind of experiment: flow cytometry competition: blocking of biotinylated PD-L1-Fc binding to muPD-1 on transfected HEK-293 cells. The procedure: FIG. 31 is a graphical representation showing antibody competition of PD-1/PD-L1 binding. HEK-293 cells transiently transfected with mouse PD-1 were incubated with various concentrations of either anti-RANKL/PD-1 bispecific, anti-PD-1 mAb RMP1-14, rat IgG2a isotype control or human IgG1 isotype control for 30 minutes on ice. Secondly, cells were incubated with 2.5 μg of biotinylated recombinant murine PD-L1-Fc for an additional 30 minutes on ice. After two washes with FACS buffer (PBS+10% FCS), a final incubation with Streptavidin-APC for extra 30 minutes on ice. Samples and data were analyzed on a Fortessa 4 (BD Biosciences) flow cytometer and analyzed with FlowJo v10 software (Tree Star, Inc.). Representative FACS plots and summary data of inhibition of PD-L1-Fc binding of two independent experiments are shown.
Background: A flow cytometer gives signals particle by particle.

The target in experiment [2] is T2, mouse RANKL transiently expressed by HEK-293 cells (mouse, UniProt O35235 1-316).
T2 construct: whole, on cells; also called muRANKL
T2 sequence (looked up): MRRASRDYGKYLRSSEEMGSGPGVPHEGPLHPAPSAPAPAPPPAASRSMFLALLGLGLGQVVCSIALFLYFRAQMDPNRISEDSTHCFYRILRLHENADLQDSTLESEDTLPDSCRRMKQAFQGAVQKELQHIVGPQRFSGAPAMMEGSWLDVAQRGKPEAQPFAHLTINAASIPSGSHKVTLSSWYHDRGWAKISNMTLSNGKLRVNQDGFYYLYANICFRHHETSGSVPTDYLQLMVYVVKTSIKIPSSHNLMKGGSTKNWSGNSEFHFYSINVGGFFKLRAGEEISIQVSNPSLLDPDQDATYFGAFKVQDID
As to the kind of experiment: flow cytometry competition: blocking of biotinylated RANK-Fc binding to muRANKL on transfected HEK-293 cells. The procedure:
FIG. 29 is a graphical representation showing antibody competition of RANKL-RANK binding. HEK-293 cells transiently transfected with mouse RANKL were incubated with various concentrations of either anti-RANKL/PD-1 bispecific, anti-RANKL mAb IK22-5, rat IgG2a isotype control or human IgG1 isotype control for 30 minutes on ice. Secondly, cells were incubated with 2.5 μg of biotinylated recombinant murine RANK-Fc for an additional 30 minutes on ice. After two washes with FACS buffer (PBS+10% FCS), a final incubation with Streptavidin-APC for extra 30 minutes on ice. Samples and data were analyzed on a Fortessa 4 (BD Biosciences) flow cytometer and analyzed with FlowJo v10 software (Tree Star, Inc.). Representative FACS plots and summary data of inhibition of RANK-Fc binding of two independent experiments are shown.

For experiment [3], the target named is T1, mouse PD-1 transiently expressed by …. The experiment can be described thus: summary sentence of Example 25.

B1: anti-PD-1 mAb RMP1-14 (rat IgG2a) (antibody, V domains shown)
VH: EVQLQESGPGLVKPSQSLSLTCSVTGYSITSSYRWNWIRKFPGNRLEWMGYINSAGISNYNPSLKRRISITRDTSKNQFFLQVNSVTTEDAATYYCARSDNMGTTPFTYWGQGTLVTVSS
VL: DIVMTQGTLPNPVPSGESVSITCRSSKSLLYSDGKTYLNWYLQRPGQSPQLLIYWMSTRASGVSDRFSGSGSGTDFTLKISGVEAEDVGIYYCQQGLEFPTFGGGTKLELK
notes: Rat IgG2a monoclonal antibody; also called anti-muPD-1 antibody (RMP1-14 rat IgG2a)
On to B1, for which, in experiment [1], the binding result was “binds”.

B2: anti-RANKL mAb IK22-5 (rat IgG2a) (antibody, V domains shown)
VH: QVQLKESGPGLVLSSATLSLTCTVSGFSLTNYDVSWIRHLPGKGLEWMGGVWLSGNTEYNSDFKSRLSISRDISKSQVFLKMSNLKIEDTGTYYCARDIGTTSDYWGQGVTVTVSS
VL: DIQVTQSPSFLSASVGDRVTFNCKTSQNINKYLAWYQAKFGEGPKLLIFNADSLQSGIPPRFSGSGSGTDFTLTISGLQPEDFATYFCLQYNSWPTFGSGTKLEIK
notes: Rat IgG2a monoclonal antibody; also called anti-muRANKL antibody (IK22-5 rat IgG2a)
Regarding B2, in experiment [2], the IC50 (as a rule, the concentration at which inhibition is half-maximal) was 1.1 µg/mL.

B3: bispecific anti-RANKL/PD-1 antibody (IK22-5/RMP1-14) (bispecific antibody)
heavy 1: QVQLKESGPGLVLSSATLSLTCTVSGFSLTNYDVSWIRHLPGKGLEWMGGVWLSGNTEYNSDFKSRLSISRDISKSQVFLKMSNLKIEDTGTYYCARDIGTTSDYWGQGVTVTVSSASTKGPSVFPLAPSSKSTSGGTAALGCLVKDYFPEPVTVSWNSGALTSGVHTFPAVLQSSGLYSLSSVVTVPSSSLGTQTYICNVNHKPSNTKVDKKVEPKSCDKTHTCPPCPAPELLGGPSVFLFPPKPKDTLMISRTPEVTCVVVAVSHEDPEVKFNWYVDGVEVHNAKTKPREEQYNSTYRVVSVLTVLHQDWLNGKEYKCKVSNKALPAPIEKTISKAKGQPREPQVYTLPPCRDELTKNQVSLWCLVKGFYPSDIAVEWESNGQPENNYKTTPPVLDSDGSFFLYSKLTVDKSRWQQGNVFSCSVLHEALHNHYTQKSLSLSPGK
light 1: DIQVTQSPSFLSASVGDRVTFNCKTSQNINKYLAWYQAKFGEGPKLLIFNADSLQSGIPPRFSGSGSGTDFTLTISGLQPEDFATYFCLQYNSWPTFGSGTKLEIKRTVAAPSVFIFPPSDEQLKSGTASVVCLLNNFYPREAKVQWKVDNALQSGNSQESVTEQDSKDSTYSLSSTLTLSKADYEKHKVYACEVTHQGLSSPVTKSFNRGEC
heavy 2: EVQLQESGPGLVKPSQSLSLTCSVTGYSITSSYRWNWIRKFPGNRLEWMGYINSAGISNYNPSLKRRISITRDTSKNQFFLQVNSVTTEDAATYYCARSDNMGTTPFTYWGQGTLVTVSSRTVAAPSVFIFPPSDEQLKSGTASVVCLLNNFYPREAKVQWKVDNALQSGNSQESVTEQDSKDSTYSLSSTLTLSKADYEKHKVYACEVTHQGLSSPVTKSFNRGECDKTHTCPPCPAPELLGGPSVFLFPPKPKDTLMISRTPEVTCVVVAVSHEDPEVKFNWYVDGVEVHNAKTKPREEQYNSTYRVVSVLTVLHQDWLNGKEYKCKVSNKALPAPIEKTISKAKGQPREPQVCTLPPSRDELTKNQVSLSCAVKGFYPSDIAVEWESNGQPENNYKTTPPVLDSDGSFFLVSKLTVDKSRWQQGNVFSCSVLHEALHNHYTQKSLSLSPGK
light 2: DIVMTQGTLPNPVPSGESVSITCRSSKSLLYSDGKTYLNWYLQRPGQSPQLLIYWMSTRASGVSDRFSGSGSGTDFTLKISGVEAEDVGIYYCQQGLEFPTFGGGTKLELKASTKGPSVFPLAPSSKSTSGGTAALGCLVKDYFPEPVTVSWNSGALTSGVHTFPAVLQSSGLYSLSSVVTVPSSSLGTQTYICNVNHKPSNTKVDKKVEPKSC
notes: also called RMP1-14 CH-CL X IK22/5 WT bispecific; anti-RANKL/PD-1 bispecific
In the case of B3, the binding result in experiment [3] was “binds”. Also, the IC50 in experiment [2] amounted to 2.6 µg/mL.
